Results published in article PMC12102759 (2025).

B1: PAIP1 peptide 124-139 (Polyadenylate-binding protein-interacting protein 1), 16-mer library wild type / PABPC1 PABC (PABPC1 PABC domain, residues 544-623) (parent complex)
chain 1: LMSKLSVNAPEFYPSG
chain 2: PLTASMLASAPPQEQKQMLGERLFPLIQAMHPTLAGKITGMLLEIDNSELLHMLESPESLRSKVDEAVAVLQAHQAKEAA

Variants of: B1
Assay: proteomic peptide phage display deep mutational scan (ProP-PD DMS): M13 P8 16-mer library selected against immobilised GST-tagged bait for four days (rounds), NGS of the eluted pools per day and pseudo-replica; bait immobilised on MaxiSorp plates (10 µg), library pre-cleared on GST, 2 h binding at 4 °C, five washes; one round per day, days 1-4; value from days 2 and 3

In order of rising screen value:
1. chain 1 LMSKLSVNAPYFYPSG [chain 1 E11Y]  0.000125 average fractional NGS count over selection days 2 and 3 (reads of this peptide / all reads for the bait, averaged over …
2. chain 1 LMSKLSVNAPEFYPSN [chain 1 G16N]  0.000134 average fractional NGS count over selection days 2 and 3 (reads of this peptide / all reads for the bait, averaged over …
3. chain 1 LMSKLSVNAPEFYPSD [chain 1 G16D]  0.000205 average fractional NGS count over selection days 2 and 3 (reads of this peptide / all reads for the bait, averaged over …
4. chain 1 LMSKLSVNAPEFYQSG [chain 1 P14Q]  0.000256 average fractional NGS count over selection days 2 and 3 (reads of this peptide / all reads for the bait, averaged over …
5. chain 1 LMSGLSVNAPEFYPSG [chain 1 K4G]  0.000301 average fractional NGS count over selection days 2 and 3 (reads of this peptide / all reads for the bait, averaged over …
6. chain 1 LMSKLSVNAHEFYPSG [chain 1 P10H]  0.000334 average fractional NGS count over selection days 2 and 3 (reads of this peptide / all reads for the bait, averaged over …
7. chain 1 LMSKLSSNAPEFYPSG [chain 1 V7S]  0.00035 average fractional NGS count over selection days 2 and 3 (reads of this peptide / all reads for the bait, averaged over …
8. chain 1 LMLKLSVNAPEFYPSG [chain 1 S3L]  0.000356 average fractional NGS count over selection days 2 and 3 (reads of this peptide / all reads for the bait, averaged over …
9. chain 1 LMSKLSVNAPEFYWSG [chain 1 P14W]  0.000356 average fractional NGS count over selection days 2 and 3 (reads of this peptide / all reads for the bait, averaged over …
10. chain 1 LMSKLSVNAIEFYPSG [chain 1 P10I]  0.000358 average fractional NGS count over selection days 2 and 3 (reads of this peptide / all reads for the bait, averaged over …
11. chain 1 LKSKLSVNAPEFYPSG [chain 1 M2K]  0.000358 average fractional NGS count over selection days 2 and 3 (reads of this peptide / all reads for the bait, averaged over …
12. chain 1 LLSKLSVNAPEFYPSG [chain 1 M2L]  0.000374 average fractional NGS count over selection days 2 and 3 (reads of this peptide / all reads for the bait, averaged over …
13. chain 1 LMSKLSVNAQEFYPSG [chain 1 P10Q]  0.000419 average fractional NGS count over selection days 2 and 3 (reads of this peptide / all reads for the bait, averaged over …
14. chain 1 LMHKLSVNAPEFYPSG [chain 1 S3H]  0.000523 average fractional NGS count over selection days 2 and 3 (reads of this peptide / all reads for the bait, averaged over …
15. chain 1 LVSKLSVNAPEFYPSG [chain 1 M2V]  0.000531 average fractional NGS count over selection days 2 and 3 (reads of this peptide / all reads for the bait, averaged over …
16. chain 1 LMSKLSVNAPEFYPWG [chain 1 S15W]  0.000557 average fractional NGS count over selection days 2 and 3 (reads of this peptide / all reads for the bait, averaged over …
17. chain 1 LMSKLSVNAPEFYPSK [chain 1 G16K]  0.000565 average fractional NGS count over selection days 2 and 3 (reads of this peptide / all reads for the bait, averaged over …
18. chain 1 LMSILSVNAPEFYPSG [chain 1 K4I]  0.000664 average fractional NGS count over selection days 2 and 3 (reads of this peptide / all reads for the bait, averaged over …
19. chain 1 LMEKLSVNAPEFYPSG [chain 1 S3E]  0.000689 average fractional NGS count over selection days 2 and 3 (reads of this peptide / all reads for the bait, averaged over …
20. chain 1 LMSKLSVNAKEFYPSG [chain 1 P10K]  0.000696 average fractional NGS count over selection days 2 and 3 (reads of this peptide / all reads for the bait, averaged over …
21. chain 1 LMSKLSVNSPEFYPSG [chain 1 A9S]  0.000704 average fractional NGS count over selection days 2 and 3 (reads of this peptide / all reads for the bait, averaged over …
22. chain 1 LMSKLSVNAPEFYPTG [chain 1 S15T]  0.000722 average fractional NGS count over selection days 2 and 3 (reads of this peptide / all reads for the bait, averaged over …
23. chain 1 LMVKLSVNAPEFYPSG [chain 1 S3V]  0.00074 average fractional NGS count over selection days 2 and 3 (reads of this peptide / all reads for the bait, averaged over …
24. chain 1 LMSKLSVNAPEFYASG [chain 1 P14A]  0.0008 average fractional NGS count over selection days 2 and 3 (reads of this peptide / all reads for the bait, averaged over …
25. chain 1 LMSKLSVNAPEFYPSS [chain 1 G16S]  0.0008 average fractional NGS count over selection days 2 and 3 (reads of this peptide / all reads for the bait, averaged over …
26. chain 1 LMWKLSVNAPEFYPSG [chain 1 S3W]  0.00081 average fractional NGS count over selection days 2 and 3 (reads of this peptide / all reads for the bait, averaged over …
27. chain 1 LMSDLSVNAPEFYPSG [chain 1 K4D]  0.000813 average fractional NGS count over selection days 2 and 3 (reads of this peptide / all reads for the bait, averaged over …
28. chain 1 LMSKLSVNAPEFYPIG [chain 1 S15I]  0.000837 average fractional NGS count over selection days 2 and 3 (reads of this peptide / all reads for the bait, averaged over …
29. chain 1 LMSKLSVNAPEFYPKG [chain 1 S15K]  0.000858 average fractional NGS count over selection days 2 and 3 (reads of this peptide / all reads for the bait, averaged over …
30. chain 1 LMSKLSVNAREFYPSG [chain 1 P10R]  0.000887 average fractional NGS count over selection days 2 and 3 (reads of this peptide / all reads for the bait, averaged over …
31. chain 1 LMSMLSVNAPEFYPSG [chain 1 K4M]  0.000922 average fractional NGS count over selection days 2 and 3 (reads of this peptide / all reads for the bait, averaged over …
32. chain 1 LMSRLSVNAPEFYPSG [chain 1 K4R]  0.000924 average fractional NGS count over selection days 2 and 3 (reads of this peptide / all reads for the bait, averaged over …
33. chain 1 LMSKLSVNAPEFYMSG [chain 1 P14M]  0.000928 average fractional NGS count over selection days 2 and 3 (reads of this peptide / all reads for the bait, averaged over …
34. chain 1 LMSKLSVNAPEFHPSG [chain 1 Y13H]  0.000948 average fractional NGS count over selection days 2 and 3 (reads of this peptide / all reads for the bait, averaged over …
35. chain 1 LMSKLSVNAPEFYPST [chain 1 G16T]  0.000984 average fractional NGS count over selection days 2 and 3 (reads of this peptide / all reads for the bait, averaged over …
36. chain 1 LMDKLSVNAPEFYPSG [chain 1 S3D]  0.000994 average fractional NGS count over selection days 2 and 3 (reads of this peptide / all reads for the bait, averaged over …
37. chain 1 LMSKLSVNAPEFAPSG [chain 1 Y13A]  0.001 average fractional NGS count over selection days 2 and 3 (reads of this peptide / all reads for the bait, averaged over …
38. chain 1 LMSKLSVNAPEYYPSG [chain 1 F12Y]  0.00127 average fractional NGS count over selection days 2 and 3 (reads of this peptide / all reads for the bait, averaged over …
39. chain 1 LMSKLSVNANEFYPSG [chain 1 P10N]  0.00136 average fractional NGS count over selection days 2 and 3 (reads of this peptide / all reads for the bait, averaged over …
40. chain 1 LMSKLSVNAPEFYPAG [chain 1 S15A]  0.00144 average fractional NGS count over selection days 2 and 3 (reads of this peptide / all reads for the bait, averaged over …
41. chain 1 LMSKLSVNAPEFTPSG [chain 1 Y13T]  0.00149 average fractional NGS count over selection days 2 and 3 (reads of this peptide / all reads for the bait, averaged over …
42. chain 1 LMSKLSVNAPEFQPSG [chain 1 Y13Q]  0.00152 average fractional NGS count over selection days 2 and 3 (reads of this peptide / all reads for the bait, averaged over …
43. chain 1 LNSKLSVNAPEFYPSG [chain 1 M2N]  0.00156 average fractional NGS count over selection days 2 and 3 (reads of this peptide / all reads for the bait, averaged over …
44. chain 1 LMSKLSVNAPEFYPYG [chain 1 S15Y]  0.00169 average fractional NGS count over selection days 2 and 3 (reads of this peptide / all reads for the bait, averaged over …
45. chain 1 LMSKLSVNAPEFYPSQ [chain 1 G16Q]  0.00204 average fractional NGS count over selection days 2 and 3 (reads of this peptide / all reads for the bait, averaged over …
46. chain 1 LMSKLSVNADEFYPSG [chain 1 P10D]  0.00221 average fractional NGS count over selection days 2 and 3 (reads of this peptide / all reads for the bait, averaged over …
47. chain 1 LESKLSVNAPEFYPSG [chain 1 M2E]  0.00221 average fractional NGS count over selection days 2 and 3 (reads of this peptide / all reads for the bait, averaged over …
48. chain 1 LMSKLSANAPEFYPSG [chain 1 V7A]  0.00224 average fractional NGS count over selection days 2 and 3 (reads of this peptide / all reads for the bait, averaged over …
49. chain 1 LMSKLSVNAPEFYPDG [chain 1 S15D]  0.00256 average fractional NGS count over selection days 2 and 3 (reads of this peptide / all reads for the bait, averaged over …
50. chain 1 LGSKLSVNAPEFYPSG [chain 1 M2G]  0.00279 average fractional NGS count over selection days 2 and 3 (reads of this peptide / all reads for the bait, averaged over …
51. chain 1 LMSQLSVNAPEFYPSG [chain 1 K4Q]  0.00289 average fractional NGS count over selection days 2 and 3 (reads of this peptide / all reads for the bait, averaged over …
52. chain 1 LMSKLSVNAEEFYPSG [chain 1 P10E]  0.00302 average fractional NGS count over selection days 2 and 3 (reads of this peptide / all reads for the bait, averaged over …
53. chain 1 LMSKLSVNAPEFYPSY [chain 1 G16Y]  0.00314 average fractional NGS count over selection days 2 and 3 (reads of this peptide / all reads for the bait, averaged over …
54. chain 1 LMSKLSVNAPEFWPSG [chain 1 Y13W]  0.00367 average fractional NGS count over selection days 2 and 3 (reads of this peptide / all reads for the bait, averaged over …
55. chain 1 LMSKLSHNAPEFYPSG [chain 1 V7H]  0.00381 average fractional NGS count over selection days 2 and 3 (reads of this peptide / all reads for the bait, averaged over …
56. chain 1 LMSKLSVNAAEFYPSG [chain 1 P10A]  0.0041 average fractional NGS count over selection days 2 and 3 (reads of this peptide / all reads for the bait, averaged over …
57. chain 1 LMSKLSVNAPEFYPHG [chain 1 S15H]  0.0055 average fractional NGS count over selection days 2 and 3 (reads of this peptide / all reads for the bait, averaged over …
58. chain 1 LMSKLSVNAPEFLPSG [chain 1 Y13L]  0.00572 average fractional NGS count over selection days 2 and 3 (reads of this peptide / all reads for the bait, averaged over …
59. chain 1 LMSKLSVNAPEFYPSH [chain 1 G16H]  0.00575 average fractional NGS count over selection days 2 and 3 (reads of this peptide / all reads for the bait, averaged over …
60. chain 1 LMSKLSVNAPEFYPVG [chain 1 S15V]  0.00767 average fractional NGS count over selection days 2 and 3 (reads of this peptide / all reads for the bait, averaged over …
61. chain 1 LMSKLSVNAPEFYPEG [chain 1 S15E]  0.0098 average fractional NGS count over selection days 2 and 3 (reads of this peptide / all reads for the bait, averaged over …
62. chain 1 LMSKLSVNAPEFYPSV [chain 1 G16V]  0.0229 average fractional NGS count over selection days 2 and 3 (reads of this peptide / all reads for the bait, averaged over …
